According to the Human Domainome abundance scans (Beltran et al. 2025):
± gives the uncertainty stated by the source.

B1: Zinc finger MYM-type protein 6, residues 427 to 504; numbered along this chain, O95789 (parent)
chain: KLKCQHCNHLFATKPELLFYKGKMFLFCGKNCSDEYKKKNKVVAMCDYCKLQKIIKETVRFSGVDKPFCSEVCKFLSA

Variants of: B1
Assay: abundance fitness (aPCA) (normalised: wild type 0, dead -1); higher = more abundant; growth selection in yeast, the domain comes from the species named
Settings: Homo sapiens

In order of falling abundance fitness:
1. P67M  0.952 ± 0.092
2. V72Y  0.757 ± 0.3
3. F61I  0.679 ± 0.22
4. V72Q  0.562 ± 0.086
5. K74M  0.544 ± 0.11
6. V72E  0.535 ± 0.073
7. F75A  0.488 ± 0.079
8. F75N  0.487 ± 0.24
9. F75G  0.484 ± 0.061
10. V59M  0.461 ± 0.24
11. Q52E  0.446 ± 0.075
12. I54P  0.442 ± 0.1
13. F61V  0.399 ± 0.079
14. I54K  0.356 ± 0.17
15. F61W  0.313 ± 0.091
16. V72A  0.252 ± 0.07
17. I54G  0.238 ± 0.06
18. Q52M  0.234 ± 0.23
19. F68C  0.204 ± 0.15
20. L76C  0.183 ± 0.18
21. F19K  0.182 ± 0.05
22. Q52T  0.181 ± 0.09
23. S77G  0.139 ± 0.079
24. F19E  0.129 ± 0.031
25. I54L  0.128 ± 0.078
26. F61R  0.117 ± 0.074
27. R60P  0.116 ± 0.12
28. L2A  0.096 ± 0.03
29. E71M  0.094 ± 0.14
30. L17T  0.086 ± 0.041
31. L2G  0.082 ± 0.028
32. Y48Q  0.059 ± 0.14
33. C46W  0.056 ± 0.11
34. H9T  0.042 ± 0.045
35. V72G  0.036 ± 0.073
36. H6M  0.033 ± 0.044
37. Y20A  0.031 ± 0.03
38. A78G  0.022 ± 0.18
39. K30I  0.021 ± 0.11
40. T58R  0.019 ± 0.071
41. L26C  0.004 ± 0.071
42. K21A  0.001 ± 0.028
43. L10D  -0.002 ± 0.077
44. N8M  -0.009 ± 0.047
45. F25V  -0.009 ± 0.039
46. L18W  -0.019 ± 0.031
47. N8R  -0.02 ± 0.031
48. K39V  -0.023 ± 0.044
49. K21R  -0.025 ± 0.029
50. K74A  -0.025 ± 0.12
51. K37V  -0.029 ± 0.03
52. K21F  -0.03 ± 0.057
53. K21M  -0.031 ± 0.041
54. D34E  -0.033 ± 0.036
55. N31Q  -0.036 ± 0.035
56. E16T  -0.037 ± 0.046
57. S33M  -0.042 ± 0.037
58. N31S  -0.042 ± 0.034
59. Y48R  -0.043 ± 0.076
60. K23S  -0.058 ± 0.039
61. K30M  -0.059 ± 0.038
62. Y20N  -0.059 ± 0.065
63. K30L  -0.061 ± 0.034
64. G22A  -0.065 ± 0.033
65. K23G  -0.067 ± 0.029
66. H9W  -0.069 ± 0.038
67. S62C  -0.072 ± 0.14
68. H6V  -0.074 ± 0.03
69. K3G  -0.078 ± 0.029
70. Y20G  -0.078 ± 0.029
71. Y20H  -0.079 ± 0.053
72. K39M  -0.087 ± 0.06
73. P67W  -0.088 ± 0.19
74. Y36M  -0.093 ± 0.056
75. E35L  -0.096 ± 0.042
76. H6D  -0.1 ± 0.083
77. N31C  -0.1 ± 0.047
78. K30F  -0.101 ± 0.054
79. E16C  -0.102 ± 0.045
80. K14R  -0.104 ± 0.031
81. N40H  -0.104 ± 0.057
82. M24L  -0.109 ± 0.045
83. E35W  -0.11 ± 0.038
84. K56H  -0.113 ± 0.15
85. L18C  -0.113 ± 0.13
86. G22M  -0.118 ± 0.11
87. P15S  -0.119 ± 0.05
88. P15R  -0.119 ± 0.029
89. T58G  -0.125 ± 0.084
90. K14Q  -0.126 ± 0.12
91. K53A  -0.126 ± 0.13
92. K23I  -0.129 ± 0.067
93. F11K  -0.13 ± 0.064
94. D34T  -0.133 ± 0.079
95. N31Y  -0.134 ± 0.24
96. K38W  -0.136 ± 0.042
97. H6F  -0.14 ± 0.062
98. K14V  -0.141 ± 0.033
99. C73M  -0.142 ± 0.15
100. F19I  -0.152 ± 0.34
101. K53P  -0.154 ± 0.15
102. Q5I  -0.156 ± 0.064
103. L18I  -0.159 ± 0.13
104. K56W  -0.16 ± 0.092
105. K39C  -0.163 ± 0.063
106. Y36T  -0.169 ± 0.06
107. M24V  -0.172 ± 0.044
108. S62L  -0.19 ± 0.2
109. E71Q  -0.194 ± 0.23
110. Q5W  -0.206 ± 0.04
111. A12N  -0.218 ± 0.076
112. G22W  -0.226 ± 0.049
113. N40Y  -0.24 ± 0.095
114. C49R  -0.242 ± 0.089
115. M24Y  -0.249 ± 0.093
116. F68E  -0.278 ± 0.1
117. A78W  -0.284 ± 0.42
118. L18P  -0.307 ± 0.039
119. K53R  -0.308 ± 0.096
120. G63L  -0.315 ± 0.097
121. S62P  -0.325 ± 0.12
122. M45P  -0.328 ± 0.16
123. S33P  -0.343 ± 0.045
124. V59W  -0.344 ± 0.17
125. K66Q  -0.348 ± 0.23
126. P15V  -0.37 ± 0.037
127. F27W  -0.372 ± 0.049
128. G29D  -0.386 ± 0.13
129. E71V  -0.386 ± 0.11
130. E57S  -0.388 ± 0.13
131. C69P  -0.391 ± 0.18
132. D47R  -0.394 ± 0.09
133. V59R  -0.42 ± 0.084
134. H6K  -0.46 ± 0.43
135. K50Y  -0.48 ± 0.5
136. Q52W  -0.483 ± 0.2
137. G63A  -0.495 ± 0.16
138. S70D  -0.498 ± 0.19
139. F27E  -0.508 ± 0.051
140. P67A  -0.51 ± 0.22
141. Y48S  -0.52 ± 0.13
142. D47V  -0.58 ± 0.1
143. K74F  -0.594 ± 0.49
144. C32D  -0.607 ± 0.074
145. A44T  -0.629 ± 0.28
146. K66C  -0.635 ± 0.33
147. C49E  -0.64 ± 0.18
148. Y36K  -0.661 ± 0.12
149. C28E  -0.671 ± 0.079
150. C46E  -0.674 ± 0.13
151. Y48V  -0.677 ± 0.12
152. D34P  -0.691 ± 0.084
153. S62W  -0.696 ± 0.24
154. F75Y  -0.699 ± 0.42
155. K50L  -0.722 ± 0.19
156. C69G  -0.731 ± 0.097
157. C28M  -0.752 ± 0.22
158. C73I  -0.753 ± 0.29
159. C32W  -0.861 ± 0.088
160. C73R  -0.863 ± 0.15
161. C28R  -0.877 ± 0.065
162. C4R  -0.877 ± 0.053
163. C69L  -0.954 ± 0.24
164. C32E  -1.01 ± 0.096
165. C69V  -1.03 ± 0.28
166. C32L  -1.05 ± 0.22
167. S70V  -1.05 ± 0.16
